The record followed here is the supplement of paper PMC12764529.

± gives the half width of the 95% confidence interval.

The nature of data set [1]: folding stability dG unfold from trypsin proteolysis; higher = more stable. The procedure, abridged: (§1)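 Bayesian fitting of sequencing counts gave K50 for each design. Unfolding free energy followed by setting this against a sequence-predicted unfolded-state K50 and a shared folded-state K50, either per protease or with trypsin and chymotrypsin combined. The designs, under 80 residues and lacking cysteine, were digested in a PA-tagged cDNA display format at 11 threefold-diluted protease concentrations and without protease, and only those with AlphaFold2 dimer inter-PAE above 15 were kept.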

The nature of data set [2]: folding stability dG unfold from chymotrypsin proteolysis; higher = more stable. The procedure, abridged: as §1
Data set [3] is described as follows: folding stability dG unfold (combined trypsin and chymotrypsin); higher = more stable. A digest of the protocol: as §1

In the case of “STLTLEELKERFPELSEEELEALAERLAALPAPVTVTVEVRPAPPPPVEERELSEEELLEARLRPGERVESA [r9_1024_TrROS_Hall]”, the “folding stability dG unfold” value in data set [1] turned out to be 0.624 ± 0.06 kcal/mol; in data set [2], 1.94 ± 0.056 kcal/mol; in data set [3], 1.51 ± 0.098 kcal/mol.

With “STRTLTVVVEAPTLEEALAAAKALAPPGWKVTVTVERREVVDPETGETRTVLVVTVTIEPAPPPPPAEEKSA [r9_962_TrROS_Hall]”, the “folding stability dG unfold” value in data set [1] was determined as 2.11 ± 0.028 kcal/mol; in data set [2], 3.16 ± 0.083 kcal/mol; in data set [3] it was 2.86 ± 0.091 kcal/mol.

On to “SVDPAKEKVVLRFTVTFPVPPELGPITADELAALVREILEAFGYEIVSVTVTVEGDRVTVTVEAVFDKRGSA [r9_1134_TrMRF]”, for which the “folding stability dG unfold” value in data set [1] came out at 3.76 ± 0.11 kcal/mol; in data set [2], 5.21 ± 0.086 kcal/mol; in data set [3] it was 5.01 ± 0.091 kcal/mol.

On to “SVEELAKKLAELFPNVKVTVTEEEIDGKKVKTIRIENKKTGKTYEITVLPNGEILITDSNGKKFSLEELLSA [r9_1176_TrROS_Hall]”, for which the entries for the “folding stability dG unfold” value in data set [1], in data set [2] and in data set [3] were 4.26 ± 0.27 kcal/mol, 4.91 ± 0.31 kcal/mol and 4.86 ± 0.25 kcal/mol, respectively.

In the case of “SVKVEVSISYDPETNTITITVRVYYKDENGNWTEVATITITIKIELPPPPPKTITLKPGVKTKEEAKKALSA [r9_888_TrROS_Hall]”, the results for the “folding stability dG unfold” value in data set [1], in data set [2] and in data set [3] were 2.63 ± 0.28 kcal/mol, 3.54 ± 0.26 kcal/mol and 3.01 ± 0.23 kcal/mol, respectively.

As for “SVNPATQVVTVTREVTYPVPPSQGPISEEEAREAVEAELAARGWTLREVRVEYEGDTVTVTAVAERPAAASA [r9_1134_JUSTAS]”, the “folding stability dG unfold” value worked out at 1.04 ± 0.018 kcal/mol in data set [1], 1.13 ± 0.053 kcal/mol in data set [2] and 1.11 ± 0.038 kcal/mol in data set [3].

Regarding “SVPADAKPGVVPERVVLVIVVPPELLDEDGRLRPENLEIAAGEAAEAARKLREAFPDVPIEDVGVVVVEGSA [r9_943_TrMRF]”, the “folding stability dG unfold” value was 0.869 ± 0.02 kcal/mol in data set [1], 0.466 ± 0.029 kcal/mol in data set [2] and 0.705 ± 0.046 kcal/mol in data set [3].

As for “SVPPNAPPGMKPKRVEIFIFIPPELYDKDGKISPEQLKKAKGMAKMIKLRLREQYPGYGIDDVKVHIMPGSA [r9_943_TrROS]”, the “folding stability dG unfold” value was 2.76 ± 0.052 kcal/mol in data set [1], 3.303 ± 0.022 kcal/mol in data set [2] and 3.14 ± 0.097 kcal/mol in data set [3].

With “SVPYGVTDVTFEPEKNTATVTAPRPDPSAPVAVGDKKGESVSVTSEVDTAAGTLTVTVPTTAPGNVTVDVPS [r1_138_JUSTAS]”, the “folding stability dG unfold” value in data set [1] is 0.57 ± 0.041 kcal/mol; in data set [2], -0.934 ± 0.54 kcal/mol; in data set [3], 0.133 ± 0.12 kcal/mol.

For “SVYNPNNPNIPTKLTVTIPVPEEVVAAGDTAAAEAAAEATAAALAPEGWRVTSVSFPRETGTMTVTLTRPSA [r9_75_JUSTAS]”, the “folding stability dG unfold” value in data set [1] was found to be 1.32 ± 0.022 kcal/mol; in data set [2], 1.16 ± 0.11 kcal/mol; in data set [3], 1.33 ± 0.063 kcal/mol.

Turning to “SWMFMIEVHDPKNGKERTVPINMPKEQVLDQIREAQEKGPRIEIWGIPPNAIKEIAEEAKLPVEIHPMPPSA [r9_1207_TrROS]”, the “folding stability dG unfold” value was 0.012 ± 0.24 kcal/mol in data set [1], 0.409 ± 0.15 kcal/mol in data set [2] and 0.148 ± 0.14 kcal/mol in data set [3].

Regarding “SWNLRLEIEEVEIEPSDNWIIIMVRVEIEGRNPDDPNKPRPVFEVWVMIPIPLPPPKPKPDPDDPAAAKDSA [r9_357_TrROS]”, the “folding stability dG unfold” value in data set [1] came to 2.29 ± 0.25 kcal/mol; in data set [2] it was 3.5 ± 0.15 kcal/mol; in data set [3], 2.8 ± 0.43 kcal/mol.

Consider “SYSIDTSKIEEAAAALPPNAVAELELTANVPESGFTLKLKVTITVDPAGKVTRITFTDPATGKKIATVDVGS [r1_165_JUSTAS]”, for which the figures for the “folding stability dG unfold” value in data set [1], in data set [2] and in data set [3] were 2.47 ± 0.069 kcal/mol, 1.52 ± 0.11 kcal/mol and 2.1 ± 0.12 kcal/mol, respectively.

Take “SYSTSTVTVPVAADEIDKAKEIAKELAEKLPPNSRVTFNMPAPDGSTFTVEVTVNPDGTITVTVSDSLPAVS [r1_350_JUSTAS]”: the “folding stability dG unfold” value in data set [1] was determined as 1.55 ± 0.041 kcal/mol; in data set [2], 0.986 ± 0.13 kcal/mol; in data set [3] it was 1.34 ± 0.087 kcal/mol.

Regarding “SYTLEFEDITLKPVEPGTKISIPGYVKYDGVLYKVTEVTYDPEKGTITITIKVEPEGKPKTLTITIPIPPPS [r1_47_JUSTAS]”, the “folding stability dG unfold” value in data set [1] came out at 2.24 ± 0.11 kcal/mol; in data set [2] it was 1.85 ± 0.086 kcal/mol; in data set [3], 2.06 ± 0.19 kcal/mol.

Consider “TTVTTPKNGLININLTDKKGNKYTFTAPVKDPVETLEKLKKLIKDLFPEYKDVKVKVVSVDGINIKVVVDIS [r1_389_TrMRF]”, for which the “folding stability dG unfold” value came out at 2.66 ± 0.11 kcal/mol in data set [1], 3.57 ± 0.061 kcal/mol in data set [2] and 3.26 ± 0.1 kcal/mol in data set [3].

Turning to “TWTFTIMIPIKPEIREALDSGKPLPIEELVDWIKDEIARMFGFKDVTVKGIEIHPDPNGEIMVMVTIEFKPS [r1_290_TrROS]”, the “folding stability dG unfold” value in data set [1] is 4.29 ± 0.28 kcal/mol; in data set [2], 4.64 ± 0.12 kcal/mol; in data set [3], 4.62 ± 0.12 kcal/mol.

On to “WKIVEITDIEPDPDGWLEIKITIEPPEPGDPIKIMIFHPNQFHEFEIDPESPEIEIRIPPGFDNLHIFIYVS [r1_428_TrROS]”, for which the “folding stability dG unfold” value in data set [1] was determined as 2.82 ± 0.24 kcal/mol; in data set [2], 4.42 ± 0.2 kcal/mol; in data set [3], 3.9 ± 0.57 kcal/mol.
